The values below come from the supplement of paper PMC5998384.

The test system of data set [1] is HeLa Kyoto. Description: thermal stability score vs G1/S (z-score of summed log2 fold changes over temperatures); higher = more thermally stable than in G1/S.
Data set [2] relates to HeLa Kyoto. Description: solubility in G1/S (NP-40 vs SDS abundance) (log2 ratio); higher = more soluble. Particulars: cell cycle stage: G1/S.
For data set [3], the system named is HeLa Kyoto. Description: solubility change mitosis vs G1/S (difference of NP-40 vs SDS log2 ratios) (log2 ratio difference); higher = more soluble in mitosis.
Data set [4] deals with HeLa Kyoto. Description: melting temperature (median over replicates), in situ; higher = more thermally stable.
The mark [5] stands for this setting: cell cycle stage: early G1 (4.5 h after nocodazole release).
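Throughout, for melting temperature (median over replicates), in situ: HeLa Kyoto cells synchronized by double thymidine or nocodazole block, proteins quantified by TMT10plex mass spectrometry, three independent biological replicates.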
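Throughout, for solubility change mitosis vs G1/S (difference of NP-40 vs SDS log2 ratios): synchronized HeLa Kyoto cells (double thymidine block for G1/S, nocodazole release for mitosis), protein amounts in NP-40 versus SDS lysates quantified by mass spectrometry, three biological replicates.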
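Throughout, for solubility in G1/S (NP-40 vs SDS abundance): HeLa Kyoto cells arrested at G1/S by double thymidine block, proteins quantified by TMT10plex mass spectrometry in mild NP-40 versus SDS extracts, three biological replicates.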
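Throughout, for thermal stability score vs G1/S (z-score of summed log2 fold changes over temperatures): synchronized HeLa Kyoto cells, proteins quantified by TMT10plex mass spectrometry, three biological replicates, mitosis taken 0.5 h after nocodazole release, G1/S directly after double thymidine block.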

As for “MLGAWAVEGTAVALLRLLLLLLPPAIRGPGLGVAGVAGAAGAGLPESVIWAVNAGGEAHVDVHGIHFRKDPLEGRVGRASDYGMKLPILRSNPEDQILYQTERYNEETFGYEVPIKEEGDYVLVLKFAEVYFAQSQQKVFDVRLNGHVVVKDLDIFDRVGHSTAHDEIIPMSIRKGKLSVQGEVSTFTGKLYIEFVKGYYDNPKVCALYIMAGTVDDVPKLQPHPGLEKKEEEEEEEEYDEGSNLKKQTNKNRVQSGPRTPNPYASDNSSLMFPILVAFGVFIPTLFCLCRL [MLEC]”, the thermal stability score in the data set with HeLa Kyoto [1] (setting [5]) stood at 1.83; in the data set on HeLa Kyoto [1] (cell cycle stage: mitosis), 2.38. Further, the “solubility in G1/S (log2)” value in the data set on HeLa Kyoto [2] was -0.0175. In addition, the “solubility change mitosis (log2)” value in the data set with HeLa Kyoto [3] is -0.0845. In addition, the melting temperature with HeLa Kyoto [4] (cell cycle stage: G1/S) was 53.7 °C; with HeLa Kyoto [4] (cell cycle stage: mitosis) it was 53.6 °C.
On to “MEVPPRLSHVPPPLFPSAPATLASRSLSHWRPRPPRQLAPLLPSLAPSSARQGARRAQRHVTAQQPSRLAGGAAIKGGRRRRPDLFRRHFKSSSIQRSAAAAAATRTARQHPPADSSVTMEDMNEYSNIEEFAEGSKINASKNQQDDGKMFIGGLSWDTSKKDLTEYLSRFGEVVDCTIKTDPVTGRSRGFGFVLFKDAASVDKVLELKEHKLDGKLIDPKRAKALKGKEPPKKVFVGGLSPDTSEEQIKEYFGAFGEIENIELPMDTKTNERRGFCFITYTDEEPVKKLLESRYHQIGSGKCEIKVAQPKEVYRQQQQQQKGGRGAAAGGRGGTRGRGRGQGQNWNQGFNNYYDQGYGNYNSAYGGDQNYSGYGGYDYTGYNYGNYGYGQGYADYSGQQSTYGKASRGGGNHQNNYQPY [HNRNPDL]”, for which the thermal stability score was 0.0293 with HeLa Kyoto [1] (setting [5]) and -2.51 in the data set on HeLa Kyoto [1] (cell cycle stage: mitosis). Moreover, the “solubility in G1/S (log2)” value in the data set with HeLa Kyoto [2] was -0.122. In the data set on HeLa Kyoto [3], the “solubility change mitosis (log2)” value stood at 0.352. The melting temperature stood at 54.4 °C in the data set with HeLa Kyoto [4] (cell cycle stage: G1/S) and 53.6 °C in the data set with HeLa Kyoto [4] (cell cycle stage: mitosis).
Consider “MGLAGVCALRRSAGYILVGGAGGQSAAAAARRYSEGEWASGGVRSFSRAAAAMAPIKVGDAIPAVEVFEGEPGNKVNLAELFKGKKGVLFGVPGAFTPGCSKTHLPGFVEQAEALKAKGVQVVACLSVNDAFVTGEWGRAHKAEGKVRLLADPTGAFGKETDLLLDDSLVSIFGNRRLKRFSMVVQDGIVKALNVEPDGTGLTCSLAPNIISQL [PRDX5]”, for which the figures for the thermal stability score in the data set on HeLa Kyoto [1] (setting [5]) and with HeLa Kyoto [1] (cell cycle stage: mitosis) were -1.13 and -2.67, respectively. In addition, the “solubility in G1/S (log2)” value in the data set on HeLa Kyoto [2] was found to be 0.582. In the data set with HeLa Kyoto [3], the “solubility change mitosis (log2)” value came to 0.124. Also, the melting temperature in the data set on HeLa Kyoto [4] (cell cycle stage: G1/S) and in the data set on HeLa Kyoto [4] (cell cycle stage: mitosis) was 55.9 °C throughout.
Take “MSMEDPFFVVKGEVQKAVNTAQGLFQRWTELLQDPSTATREEIDWTTNELRNNLRSIEWDLEDLDETISIVEANPRKFNLDATELSIRKAFITSTRQVVRDMKDQMSTSSVQALAERKNRQALLGDSGSQNWSTGTTDKYGRLDRELQRANSHFIEEQQAQQQLIVEQQDEQLELVSGSIGVLKNMSQRIGGELEEQAVMLEDFSHELESTQSRLDNVMKKLAKVSHMTSDRRQWCAIAILFAVLLVVLILFLVL [STX6]”: the thermal stability score with HeLa Kyoto [1] (setting [5]) is 1.56; in the data set on HeLa Kyoto [1] (cell cycle stage: mitosis), -0.616. The “solubility in G1/S (log2)” value in the data set on HeLa Kyoto [2] is -0.167. Moreover, the “solubility change mitosis (log2)” value with HeLa Kyoto [3] was -0.118. The melting temperature came out at 53.5 °C in the data set with HeLa Kyoto [4] (cell cycle stage: G1/S) and 52.9 °C with HeLa Kyoto [4] (cell cycle stage: mitosis).
In the case of “MLTTLKPFGSVSVESKMNNKAGSFFWNLRQFSTLVSTSRTMRLCCLGLCKPKIVHSNWNILNNFHNRMQSTDIIRYLFQDAFIFKSDVGFQTKGISTLTALRIERLLYAKRLFFDSKQSLVPVDKSDDELKKVNLNHEVSNEDVLTKETKPNRISSRKLSEECNSLSDVLDAFSKAPTFPSSNYFTAMWTIAKRLSDDQKRFEKRLMFSHPAFNQLCEHMMREAKIMQYKYLLFSLHAIVKLGIPQNTILVQTLLRVTQERINECDEICLSVLSTVLEAMEPCKNVHVLRTGFRILVDQQVWKIEDVFTLQVVMKCIGKDAPIALKRKLEMKALRELDRFSVLNSQHMFEVLAAMNHRSLILLDECSKVVLDNIHGCPLRIMINILQSCKDLQYHNLDLFKGLADYVAATFDIWKFRKVLFILILFENLGFRPVGLMDLFMKRIVEDPESLNMKNILSILHTYSSLNHVYKCQNKEQFVEVMASALTGYLHTISSENLLDAVYSFCLMNYFPLAPFNQLLQKDIISELLTSDDMKNAYKLHTLDTCLKLDDTVYLRDIALSLPQLPRELPSSHTNAKVAEVLSSLLGGEGHFSKDVHLPHNYHIDFEIRMDTNRNQVLPLSDVDTTSATDIQRVAVLCVSRSAYCLGSSHPRGFLAMKMRHLNAMGFHVILVNNWEMDKLEMEDAVTFLKTKIYSVEALPVAAVNVQSTQ [FASTKD2]”, the values for the thermal stability score in the data set with HeLa Kyoto [1] (setting [5]) and in the data set with HeLa Kyoto [1] (cell cycle stage: mitosis) were 0.322 and 0.825, respectively. The “solubility in G1/S (log2)” value in the data set on HeLa Kyoto [2] was -0.17. Besides, in the data set with HeLa Kyoto [3], the “solubility change mitosis (log2)” value is -0.134. Further, the melting temperature in the data set with HeLa Kyoto [4] (cell cycle stage: G1/S) was determined as 51.8 °C; in the data set on HeLa Kyoto [4] (cell cycle stage: mitosis) it was 51.1 °C.
